Reference: patent US20150158934A1
Changes are numbered by the printed parent chain.

B1: J3_CDR2_fill_1 (site directed mutagenesis) (VHH)
VHH: EVQLVESGGGLVQAGGFLRLSCELRGSIFNQYAMAWFRQAPGKEREFVAGMSGAVPHYGEFVKGRFTISRDNAKSTVYLQMSSLKPEDTAIYFCARSKSTYISYNSNGYDYWGRGTQVTVSS
B2: 3E3mod-long-CDR2 (VHH)
VHH: QVQLQESGGGLVQAGGSLRLSCAASQFTLESYAIGWFRQAPGKDSEGVACISSSDGSTYYADSVKGRFTISRDNAKNTVYLQMNSLKPEDTAVYHCATSGAGSYCTLRAFGSWGQGTQVTVSS
B3: J3_CDR2_fill_2 (site directed mutagenesis) (VHH)
VHH: EVQLVESGGGLVQAGGFLRLSCELRGSIFNQYAMAWFRQAPGKEREFVAGMSWGAVPHYGEFVKGRFTISRDNAKSTVYLQMSSLKPEDTAIYFCARSKSTYISYNSNGYDYWGRGTQVTVSS
B4: L8Cj3 Mutant 2 (VHH)
VHH: EVQLVESGGGLVQAGGFLRLSCELRGSIFSQYAMAWFRQAPGKEREFVAGMGAVPHYGEFVKGRFTISRDNAKSTVYLQMSSLKPEDTAIYFCARSKSTYISYNSNGYDYWGRGTQVTVSS
B5: L8Cj3 Mutant 10 (VHH)
VHH: B4 VHH with S30N, G107E
B6: L8Cj3 Mutant 9 (VHH)
VHH: B4 VHH with S30N, N104A
B7: L8Cj3 Mutant 7 (VHH)
VHH: B4 VHH with S30N, R95A
B8: L8Cj3 Mutant 1 (VHH)
VHH: B4 VHH with E23A, L24A, R25S, S30N
B9: L8Cj3 Mutant 4 (VHH)
VHH: B4 VHH with S30N, G58A, E59D, F60S
B10: L8i5 (VHH)
VHH: B4 VHH with L24P, S30N, P55A, S74N, V76A, S81N
B11: L8Cj3 Mutant 13 (VHH)
VHH: B4 VHH with S27R, I28T, S30N
B12: L8Cj3 Mutant 6 (VHH)
VHH: B4 VHH with S30N, F92Y
B13: L8Cj3 Mutant 11 (VHH)
VHH: B4 VHH with S30N, R113Q
B14: L8Cj3 Mutant 8 (VHH)
VHH: B4 VHH with S30N, S98N
B15: L8Cj3 Mutant 5 (VHH)
VHH: B4 VHH with S30N, I90V
B16: L8Cj3 Mutant 12 (VHH)
VHH: B4 VHH with E23I, L24Y, S30N
B17: L1719E1 (VHH)
VHH: EVQLVESGGGLVRHGDSLRLSCLVSGRTTSVYATGWFRQAPGKEREFVAAISWSGGYTNYADSVKGRFTISRDNAKNTVFLQMNSLKPEDTAVYYCAADRNPYRGSNNANAYDYWGQGTQVTVSS
B18: L81H9 (VHH)
VHH: EVQLVESGGGLVQAGGSLRLSCVCSGFSSDEYAIGWFRQAPGKEREGVSYISREDGSRHYADSVKGRFTISTDYARNTVYLQMDSLKPEDTGVYYCAAALLGDYVLWLPEYPYNYWGQGTQVTVSS
B19: L93E3 (VHH)
VHH: EVQLVESGGGLVQPGGSLRLSCAASQFTLESYAIGWFRQAPGKDSEGVACISSSTYYADSVKGRFTISRDNAKNTVYLQMESLKPEDTAVYHCATSGAGSYCTLRAFGSWGQGTQVTVSS

These binders were tested against gp140UG37 (subtype A), gp140 envelope glycoprotein from the HIV-1 group M A-clade isolate 92UG037 (HIV-1) (assay: binding of VHH to gp140 92UG (method not given)).
Binder B1 has a K50 (50% binding concentration) greater than 10 µg/mL. With B2 the K50 (50% binding concentration) was greater than 10 µg/mL. Binder B3 has a K50 (50% binding concentration) greater than 10 µg/mL.

The binders below were run against gp140CN54 (subtype B'/C), gp140 envelope glycoprotein from the HIV-1 group M CRF07-B/C-clade isolate 97CN54 (HIV-1) (assay: binding of VHH to gp140 CN54 (method not given)).
B1 was tested, and the K50 (50% binding concentration) was greater than 100 µg/mL. In the case of B3, the K50 (50% binding concentration) is reported as greater than 100 µg/mL.

What follows are binders tested against gp140UG37 (subtype A), gp140 envelope glycoprotein from the HIV-1 group M A-clade isolate 92UG037 (HIV-1) (assay: binding of purified VHH to gp140 92UG (method not given)).
B4 gave a K50 (50% binding concentration; column head reads KD) of 0.04 µg/mL. In the case of B5, the K50 (50% binding concentration; column head reads KD) is reported as 0.086 µg/mL. B6 gave a K50 (50% binding concentration; column head reads KD) of 0.022 µg/mL. Work on B7 yielded a K50 (50% binding concentration; column head reads KD) of 0.95 µg/mL. In the case of B8, the K50 (50% binding concentration; column head reads KD) is reported as 0.058 µg/mL. B9 gave a K50 (50% binding concentration; column head reads KD) of 0.025 µg/mL. Binder B10 has a K50 (50% binding concentration; column head reads KD) of 0.048 µg/mL. With B11 the K50 (50% binding concentration; column head reads KD) was 0.027 µg/mL. B12 was tested, and the K50 (50% binding concentration; column head reads KD) was 0.024 µg/mL. B13 gave a K50 (50% binding concentration; column head reads KD) of 0.019 µg/mL. Binder B14 has a K50 (50% binding concentration; column head reads KD) of 0.02 µg/mL. Binder B15 has a K50 (50% binding concentration; column head reads KD) of 0.028 µg/mL. B16 showed a K50 (50% binding concentration; column head reads KD) of 0.042 µg/mL.

Each binder was assayed against gp140CN54 (subtype B'/C), gp140 envelope glycoprotein from the HIV-1 group M CRF07-B/C-clade isolate 97CN54 (HIV-1) (assay: binding of purified VHH to gp140 CN54 (method not given)).
B4 gave a K50 (50% binding concentration; column head reads KD) of 0.18 µg/mL. In the case of B5, the K50 (50% binding concentration; column head reads KD) is reported as 12.1 µg/mL. With B6 the K50 (50% binding concentration; column head reads KD) was 0.14 µg/mL. In the case of B7, the K50 (50% binding concentration; column head reads KD) is reported as greater than 100 µg/mL. With B8 the K50 (50% binding concentration; column head reads KD) was 67.8 µg/mL. In the case of B9, the K50 (50% binding concentration; column head reads KD) is reported as 1.84 µg/mL. B10 gave a K50 (50% binding concentration; column head reads KD) of 8.54 µg/mL. B11 was tested, and the K50 (50% binding concentration; column head reads KD) was greater than 100 µg/mL. In the case of B12, the K50 (50% binding concentration; column head reads KD) is reported as 0.25 µg/mL. B13 gave a K50 (50% binding concentration; column head reads KD) of 9.26 µg/mL. B14 was tested, and the K50 (50% binding concentration; column head reads KD) was 0.36 µg/mL. In the case of B15, the K50 (50% binding concentration; column head reads KD) is reported as 1.07 µg/mL. B16 was tested, and the K50 (50% binding concentration; column head reads KD) was greater than 100 µg/mL.

These binders were tested against gp120Yu-2 109-428 (HIV-1) (assay: competition ELISA on coated gp120Yu-2 109-428; periplasmic VHH first, then competitor 17b detected).
B17 showed a signal as percent of the signal of the control of less than 30%.

These binders were tested against gp120Yu-2 109-428 (HIV-1) (assay: competition ELISA on coated gp120Yu-2 109-428; periplasmic VHH first, then competitor b12 detected).
With B18 the signal as percent of the signal of the control was less than 30%.

These binders were tested against gp120Yu-2 109-428 (HIV-1) (assay: competition ELISA on coated gp120Yu-2 109-428; periplasmic VHH first, then competitor sCD4 detected).
With B19 the signal as percent of the signal of the control was less than 30%.
